This passage reports EC50 and Kd results from patent publication US20240409620A1 (published 2024).

Test [1] has as its target T1, RSV/B/B9320 pre-fusion F protein (respiratory syncytial virus RSV/B/B9320). The test can be described thus: ELISA.
In test [2] the target is T2, RSV/A/A2 pre-fusion F protein (respiratory syncytial virus RSV/A/A2, UniProt P03420 26-109). The experiment in a line: ELISA. In general terms: In an ELISA, binding on a coated surface is turned into a signal by an enzyme label.
The target in test [3] is T2, RSV/A/A2 pre-fusion F protein. The experiment in a line: BLI. For orientation: In BLI a coated tip is dipped into the sample, and binding shifts an interference pattern.
Test [4] concerns the target T1, RSV/B/B9320 pre-fusion F protein. The test can be described thus: BLI.
The target of test [5] is T2, RSV/A/A2 pre-fusion F protein. The test can be described thus: BLI. This is another data set of the same source.

Like-named read-outs stand apart in the source and are kept apart here.

A word on the EC50: it is the concentration needed to bring the measured effect to its halfway point. Read a low EC50 as a more potent agent. As usually defined, the Kd is a measure of binding affinity in units of concentration. A high value points to weaker binding.

B1: 4F1En1 (VH-S75R) (antibody, V domains shown)
VH: QVQLVESGGGVVQPGRSLRLSCAASGFSFYSYSVHWVRQAPGKGLEWVADVVYDGNHQHYTDSVKGRFTISRDTRKNTVYLQMGSLRAEDTALYYCTARSLVITLAGAGRDDYWGQGTTVTVSS
VL: DIVMTQSPLSLPVTPGEPASISCRSSQSLLHSNGYTYLDWYLQKPGQSPQLLIFLGSSRASGVPDRFSGSGSGTDFTLKISRVEAEDVGVYYCVQDLQTSLTFGGGTKLEIKR
With B1, the EC50 was 0.0565 mg/L in test [1] and 0.0245 mg/L in test [2]. In addition, the figures for the Kd in test [3] and in test [4] were < 0.001 nM and 0.0018 nM, respectively.

B2: 4F1 germline reversion (antibody, V domains shown)
VH: QVQLVESGGGVVQPGRSLRLSCAASGFSFYSYSVHWVRQAPGKGLEWVADVVYDGNHQHYTDSVKGRFTISRDTSKNTVYLQMGSLRAEDTALYYCTARSLVITLAGAGRDDYWGQGTTVTVSS
VL: DIVMTQSPLSLPVTPGEPASISCRSSQSLLHSNGYTYLDWYLQKPGQSPQLLIFLGSSRASGVPDRFSGSGSGTDFTLKISRVEAEDVGVYYCVQDLQTSLTFGGGTKLEIKR
Turning to B2, the EC50 in test [1] was 0.0781 mg/L; in test [2], 0.0536 mg/L.

B3: fully human monoclonal antibody 4F1 wild type (antibody, V domains shown)
VH: EVQLVQSGGGVVRPGRSLRLSCAASGFSFYSYSVHWVRQAPGKGLEWVADVVYDGNHQHYTESVRGRFSISRDTSTNTVYLQMGSLRPEDTALYYCTARSLVITLAGAGRDDYWGQGTRVTVSS
VL: DIVMTQSPLSLSVTPGEPASISCKSSQSLLHSNGYTYLDWYLQKPGKSPQLLIFLGSSRASGVPARFSGSGSGTDFTLEISRVEAEDVGVYYCVQDLQTSLTFGGGTKVDIK
Take B3: the EC50 in test [1] is 0.111 mg/L. For the same molecule, the Kd in test [4] was 0.0684 nM.

B4: MEDI8897 (antibody, V domains shown)
VH: QVQLVQSGAEVKKPGSSVMVSCQASGGLLEDYIINWVRQAPGQGPEWMGGIIPVLGTVHYGPKFQGRVTITADESTDTAYMELSSLRSEDTAMYYCATETALVVSETYLPHYFDNWGQGTLVTVSS
VL: DIQMTQSPSSLSAAVGDRVTITCQASQDIVNYLNWYQQKPGKAPKLLIYVASNLETGVPSRFSGSGSGTDFSLTISSLQPEDVATYYCQQYDNLPLTFGGGTKVEIK
As for B4, the Kd in test [4] amounted to 0.66 nM; in test [5], 0.0172 nM.

B5: Palivizumab (SYNAGIS) (antibody, V domains shown)
VH: QVTLRESGPALVKPTQTLTLTCTFSGFSLSTSGMSVGWIRQPPGKALEWLADIWWDDKKDYNPSLKSRLTISKDTSKNQVVLKVTNMDPADTATYYCARSMITNWYFDVWGAGTTVTVSS
VL: DIQMTQSPSTLSASVGDRVTITCKCQLSVGYMHWYQQKPGKAPKLLIYDTSKLASGVPSRFSGSGSGTEFTLTISSLQPDDFATYYCFQGSGYPFTFGGGTKLEIK
As for B5, the Kd in test [4] amounted to 0.362 nM; in test [5], 0.0407 nM.
